Test results from US20230131847A1, “RECOMBINASE COMPOSITIONS AND METHODS OF USE” (FLAGSHIP PIONEERING INNOVATIONS VI, LLC, priority 2019, published 2023).

Assays:
[1] = system: HEK293T landing pad cells; experiment: Dual AAV delivery of serine integrase and template DNA, ddPCR integration assay; format: cell-based, human
From the text: FIGS. 3A and 3B: Dual AAV delivery of serine integrase and template DNA to mammalian cells. (A) Schematic representation of experiment. BXB1 serine recombinase and template DNA are co-delivered as separate AAV viral vectors into BXB landing pad cell lines. (B) Droplet digital PCR (ddPCR) assay to assess integration (% CNV/landing pad) of BXB1 serine recombinase and transgene into attP-attP* landing pad cell line 3 days and 7 days post-transduction. Black dots (to the right of each pair of gray dots) indicate template only samples and fall at 0% on the y-axis. Gray dots (to the left of each pair of black dots) indicate template+BXB1 integrase and fall between 1-6% on the y-axis. […]
Two transgene configurations are assessed to determine the integration, stability, and expression using different AAV donor formats (FIG. 1B): 1) template comprising attP* or attB* that utilizes formation of double-stranded circularized DNA following AAV transduction in the cell nucleus; or 2) template comprising double attachment sites, attP-attP* or attB-attB*, that can integrate into the mammalian genome independent of double-stranded circularization of the DNA following AAV transduction in the cell nucleus. […]

[2] = system: HEK293T landing pad cells; experiment: mRNA delivery of integrase and AAV delivery of template DNA, ddPCR integration assay; format: cell-based, human
From the text: FIGS. 4A and 4B: mRNA delivery of BXB1 integrase and AAV delivery of template DNA to mammalian cells. (A) Schematic representation of experiment. mRNA delivery of BXB1 serine recombinase and AAV delivery of template DNA into BXB1 landing pad cell lines. (B) Droplet digital PCR (ddPCR) assay to assess integration (% CNV/landing pad) of BXB1 serine recombinase and transgene into attP-attP* landing pad cell line 3 days post mRNA transfection/AAV transduction. Black dots (to the right of each pair of gray dots) indicate template only samples and fall at 0% on the y-axis. Gray dots (to the left of each pair of black dots) indicate template+BXB1 integrase and fall at greater than 0% on the y-axis.
More specifically, a recombinase, e.g., an integrase with an amino acid sequence from Table 3A, 3B, or 3C, e.g., the Bxb1 recombinase protein (Table 3A Line No. 204), and a template DNA comprising the associated attachment site, e.g., a sequence from a LeftRegion or RightRegion of Table 2A, 2B, or 2C, e.g., the LeftRegion from Table 2A Line No. 204, are introduced into a HEK293T landing pad cell line. In this example, the recombinase is delivered as mRNA encoding the recombinase, and the template DNA is delivered via AAV.
HEK293T landing pad cells containing either the attP-attP* or attB-attB* landing pad sites (see Example 14) were seeded in a 48-well plate format at 40,000 cells/well. […] The timing of delivery was also assessed by the following conditions: 1) mRNA delivery of BXB1 integrase and AAV delivery of template DNA on the same day, 2) mRNA delivery of BXB1 integrase 24 h prior to AAV delivery of template DNA, 3) AAV delivery of template DNA 24 h prior to mRNA delivery of BXB1 integrase. ddPCR was performed to assess the integration mediated through mRNA delivery of a serine integrase and AAV delivery of a template comprising its attachment, ddPCR was performed to assay for integration (% CNV/landing pad) on day 3 post-transfection of mRNA and post-transduction of AAV. ˜2-4% integration was detected using an attP* donor to attB-attB* landing pad 293T cell line (FIG. 4B). […]

B1: BXB1 integrase: Bxb1 recombinase protein (Table 3A Line No. 204), delivered as AAV vector or mRNA (protein, UniProt P25426 1-333, looked up)
Integrase: MDAEAWLASEKRLIDNEEWTPPAEREKKAAASAITVEEYTKKWIAERDLAGGTKDLYSTHARKRIYPVLGDTPVAEMTPALVRAWWAGMGKQYPTARRHAYNVLRAVMNTAVEDKLVSENPCRIEQKAPAERDVEALTPEELDVVAGEVFEHYRVAVYILAWTSLRFGELIEIRRKDIMDDGETMKLRVRRGPARVGEKIVVGNTKTVRSKRPVTVPPHVAAMIRAHMADRTKMNKGPEALLVTTTRGQRLSKSAFTRSLKKGYAKIGRPDLRIHDLRAVGATLAAQAGATTKELMVRLGHTTPRMAMKYQMASAARDEEIARRMSELAGITP
integration (% CNV/landing pad) by ddPCR ([1]; dual AAV2, attB* donor to attP-attP* landing pad cell line, day 3 and day 7 post-transduction, integrase MOI about 25,000, template MOI about 75,000): ~5% | integration (% CNV/landing pad) by ddPCR, FIG. 3B ([1]; dual AAV, template+BXB1 integrase, attP-attP* landing pad cell line, 3 days and 7 days post-transduction): 1-6% | highest % CNV/landing pad by ddPCR ([2]; AAV delivery of attachment site donor 24 h prior to mRNA delivery of BXB1 integrase, day 3): ~4% | integration (% CNV/landing pad) by ddPCR ([2]; integrase mRNA about 1 μg + AAV template MOI about 75,000, attP* donor to attB-attB* landing pad 293T cell line, day 3): 2-4% | integration (% CNV/landing pad) by ddPCR, FIG. 4B ([2]; template+BXB1 integrase, attP-attP* landing pad cell line, 3 days post mRNA transfection/AAV transduction): greater than 0%
